Where no end group is shown, it is not given here. The star is where a group is joined. Biotin = O=C1N[C@H]2[C@H](CS[C@H]2CCCCC(=O)*)N1
B1: Comparative antibody 3 (Comp-3) scFv, SR_92R (Somovilla-Crespo et al. 2018), His-tagged (scFv)
scFv: EVKLEESGGGLVQPGGSMKLSCVASGFTFNKFWMNWVRQSPEKGLEWVAEIRLKSNNYATHYAESVKGRFTISRDDSKSSVYLQMNNLRAEDTGIYYCASDGWFAYWGQGTLVTVSAGGGGSGGGGSGGGGSGGGGSDVVMTQTPLSLPVSLGDQASISCRSSQSLVHSNGNTYLNWCLQRPGQSPKSLIYKVSNRFSGVPDRFSGSGSGTDFTLKISRVEAEDLGVYFCSQSTHFPRTFGGGTKLEIKRHHHHHH
B2: CCR9_HUM2 scFv (humanized anti-CCR9 scFv, SEQ ID NO: 17 with C-terminal 6xHis tag) (scFv)
scFv: QVQLVQSGAEVKKPGASVKVSCTASGYSFTDYIIYWVKQAHGQSLEWMGYIDPNNYNTRYSQKFQGKVTITVDKSSTSAYMELNSLTSDDTAVYYCARDVYWGQGTTVTVSSGGGGSGGGGSGGGGSGGGGSDVVMTQTPLSLSVTPGQPASISCRSSQSLVHSNGKTYLQWYLQKPGQSPKLLIYKVSNRFSGVPDRFSGSGSGTDFTLKISRVEAEDVGVYFCAQSTHVWTFGGGTKVEIKRAHHHHHH

How the values were obtained:
[1] = biological target: T1, biotin-peptide SMEDYVNFNF (human); experiment: ELISA biotin-peptide; scFv 10 ug/mL; repII
T1 peptide: Biotin-SMEDYVNFNF
Method: (§1) The peptides were synthesized naked or with a N-terminal Biotin modification with a purity of >98%. All four scFvs were verified by ELISA that can be detected with anti-His antibodies. ELISA was performed for scFv-peptide binding validation. Briefly, naked peptides were coated (50 μg/mL) in 0.58M carbonate-bicarbonate buffer pH9.5, 100 μL/well, 4° C. O/N. Then after blocking (3% BSA-PBS, 300 μL/well 37° C. 1.5 h) and washing (PBS+Tween-20 0.05% v/v (0.05% PBST), wells were incubated with each purified scFv antibody at concentration of 1 μg/mL in PBS at 37° C. 1 h. After washing (0.05% PBST), wells were incubated with secondary antibodies (goat anti-His IgG-HRP) in PBS, 37° C., 30 min. After washing, and incubation with TMB substrate, reactions were stopped with 2M HCl and reading was quantified at OD450.
(§2) ELISA with biotin-conjugated peptides (5 μg/mL) was performed very similar to described above with minor modifications.

[2] = biological target: T2, biotin-peptide MEDYVNFNFT (human); experiment: ELISA biotin-peptide; scFv 10 ug/mL; repII
T2 peptide: Biotin-MEDYVNFNFT
Method: as §1, §2

[3] = biological target: T3, naked peptide 1a MTPTDFTSPIPNMADDYGSESTSS (human); experiment: ELISA naked 24-mer; repI
T3 construct: also called region 1-24
T3 peptide: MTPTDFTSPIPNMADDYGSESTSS

[4] = biological target: T4, naked peptide 1b MEDYVNFNFTDFYCEKNNVRQFAS (human); experiment: ELISA naked 24-mer; repI
T4 construct: also called region amino acids 25 to 48
T4 peptide: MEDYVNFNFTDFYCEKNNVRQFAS

naked peptide TSPIPNMADD [5] = biological target: T5, naked peptide TSPIPNMADD (human); experiment: ELISA naked peptide; scFv 1 ug/mL; repI
T5 peptide: TSPIPNMADD
Method: as §1
(§3) Then a library of overlapping peptides were designed and constructed separately to produce 16 different peptides, covering full antigen sequence of total 48 aa. Peptide size was 10aa, with 7aa overlapping and ELISA screening of scFv against each peptide was performed in duplicate. Screening was performed using naked peptides in a standard plate or biotinylated peptides using avidin-plates.

naked peptide MTPTDFTSPI [6] = biological target: T6, naked peptide MTPTDFTSPI (human); experiment: ELISA naked peptide; scFv 1 ug/mL; repI
T6 peptide: MTPTDFTSPI
Method: as §1, §3

naked peptide MADDYGSEST [7] = biological target: T7, naked peptide MADDYGSEST (human); experiment: ELISA naked peptide; scFv 1 ug/mL; repI
T7 peptide: MADDYGSEST
Method: as §1, §3

naked peptide TDFYCEKNNV [8] = biological target: T8, naked peptide TDFYCEKNNV (human); experiment: ELISA naked peptide; scFv 1 ug/mL; repI
T8 peptide: TDFYCEKNNV
Method: as §1, §3

naked peptide SSMEDYVNFN = biological target: T9, naked peptide SSMEDYVNFN (human); experiment: ELISA naked peptide; scFv 1 ug/mL; repII
T9 peptide: SSMEDYVNFN
Method: as §1, §3

naked peptide SMEDYVNFNF = biological target: T10, naked peptide SMEDYVNFNF (human); experiment: ELISA naked peptide; scFv 1 ug/mL; repII
T10 peptide: SMEDYVNFNF
Method: as §1, §3

naked peptide YVNFNFTDFY = biological target: T11, naked peptide YVNFNFTDFY (human); experiment: ELISA naked peptide; scFv 1 ug/mL; repII
T11 peptide: YVNFNFTDFY
Method: as §1, §3

naked peptide TSPIPNMADD [9] = biological target: T5, naked peptide TSPIPNMADD; experiment: ELISA naked peptide; scFv 1 ug/mL; repII
Method: as §1, §3

naked peptide MTPTDFTSPI [10] = biological target: T6, naked peptide MTPTDFTSPI; experiment: ELISA naked peptide; scFv 1 ug/mL; repII
Method: as §1, §3

naked peptide DYGSESTSSM = biological target: T12, naked peptide DYGSESTSSM (human); experiment: ELISA naked peptide; scFv 1 ug/mL; repII
T12 peptide: DYGSESTSSM
Method: as §1, §3

naked peptide TDFTSPIPNM = biological target: T13, naked peptide TDFTSPIPNM (human); experiment: ELISA naked peptide; scFv 1 ug/mL; repII
T13 peptide: TDFTSPIPNM
Method: as §1, §3

naked peptide KNNVRQFAS = biological target: T14, naked peptide KNNVRQFAS (human); experiment: ELISA naked peptide; scFv 1 ug/mL; repII
T14 peptide: KNNVRQFAS
Method: as §1, §3

naked peptide FNFTDFYCEK = biological target: T15, naked peptide FNFTDFYCEK (human); experiment: ELISA naked peptide; scFv 1 ug/mL; repII
T15 peptide: FNFTDFYCEK
Method: as §1, §3

naked peptide YCEKNNVRQF = biological target: T16, naked peptide YCEKNNVRQF (human); experiment: ELISA naked peptide; scFv 1 ug/mL; repII
T16 peptide: YCEKNNVRQF
Method: as §1, §3

naked peptide MADDYGSEST [11] = biological target: T7, naked peptide MADDYGSEST; experiment: ELISA naked peptide; scFv 1 ug/mL; repII
Method: as §1, §3

naked peptide TDFYCEKNNV [12] = biological target: T8, naked peptide TDFYCEKNNV; experiment: ELISA naked peptide; scFv 1 ug/mL; repII
Method: as §1, §3

naked peptide IPNMADDYGS = biological target: T17, naked peptide IPNMADDYGS (human); experiment: ELISA naked peptide; scFv 1 ug/mL; repII
T17 peptide: IPNMADDYGS
Method: as §1, §3

naked peptide MEDYVNFNFT = biological target: T18, naked peptide MEDYVNFNFT (human); experiment: ELISA naked peptide; scFv 1 ug/mL; repII
T18 peptide: MEDYVNFNFT
Method: as §1, §3

naked peptide SESTSSMEDY = biological target: T19, naked peptide SESTSSMEDY (human); experiment: ELISA naked peptide; scFv 1 ug/mL; repII
T19 peptide: SESTSSMEDY
Method: as §1, §3

naked peptide TSSMEDYVNF = biological target: T20, naked peptide TSSMEDYVNF (human); experiment: ELISA naked peptide; scFv 1 ug/mL; repII
T20 peptide: TSSMEDYVNF
Method: as §1, §3

[13] = biological target: T21, Pep1-48, N-terminal domain 1 of CCR9, amino acids 1 to 48 (human); experiment: BLI, scFv on NTA biosensor, 1:1 global fit
T21 construct: Chemically synthesized (Genscript), purity >75%; also called CCR9 N-terminal 1-48 peptide
T21 peptide: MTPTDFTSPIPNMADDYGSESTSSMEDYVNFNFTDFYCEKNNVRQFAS
Method: The affinity between the CCR9-N-terminal domain 1 of CCR9 and the different scFvs was determined by Bio-Layer Interferometry (BLI), a technique that allows quantitative and qualitative measurement of biomolecular interactions in real-time. Briefly, scFv were immobilized onto NTA Biosensor (Sartorius) and quantification was performed in an Octet RED384 (Sartorius). scFv were dissolved in PBS (150 mM NaCl, 38 mM Na2HPO4, 12 mM NaH2PO4, pH 7.2) and a buffer containing 0.03% Tween-20 in PBS, pH 7.2 was used for baseline steps.

| Binder | OD450 [1] [OD] | OD450 [2] [OD] | OD450 [3] [OD] | OD450 [4] [OD] | OD450 (naked peptide TSPIPNMADD [5]) [OD] | OD450 (naked peptide MTPTDFTSPI [6]) [OD] | OD450 (naked peptide MADDYGSEST [7]) [OD] | OD450 (naked peptide TDFYCEKNNV [8]) [OD] | OD450 (naked peptide SSMEDYVNFN) [OD] | OD450 (naked peptide SMEDYVNFNF) [OD] | OD450 (naked peptide YVNFNFTDFY) [OD] | OD450 (naked peptide TSPIPNMADD [9]) [OD] | OD450 (naked peptide MTPTDFTSPI [10]) [OD] | OD450 (naked peptide DYGSESTSSM) [OD] | OD450 (naked peptide TDFTSPIPNM) [OD] | OD450 (naked peptide KNNVRQFAS) [OD] | OD450 (naked peptide FNFTDFYCEK) [OD] | OD450 (naked peptide YCEKNNVRQF) [OD] | OD450 (naked peptide MADDYGSEST [11]) [OD] | OD450 (naked peptide TDFYCEKNNV [12]) [OD] | other results |
| --- | --- | --- | --- | --- | --- | --- | --- | --- | --- | --- | --- | --- | --- | --- | --- | --- | --- | --- | --- | --- | --- |
| B1 | 0.12 | 0.11 | 1.38 | 0.11 | 0.02 | 0.02 | 0.02 | 0.03 | 0.08 | 0.07 | 0.01 | 0.04 | 0.04 | 0.03 | 0.08 | 0.04 | 0.07 | 0.03 | 0.04 | 0.04 | OD450 (naked peptide IPNMADDYGS): 0.04 OD; OD450 (naked peptide MEDYVNFNFT): 0.06 OD; OD450 (naked peptide SESTSSMEDY): 0.04 OD; OD450 (naked peptide TSSMEDYVNF): 0.03 OD; Kd [13]: 0.0331 µM; koff [13]: 0.012 s⁻¹; kon [13]: 364000 M⁻¹ s⁻¹ |
| B2 | 2.38 | 2.32 | 0.05 | 2.22 | 0.03 | 0.04 | 0.03 | 0.05 | 0.99 | 1.48 | 0.02 | 0.02 | 0.04 | 0.02 | 0.04 | 0.03 | 0.03 | 0.03 | 0.03 | 0.03 | OD450 (naked peptide IPNMADDYGS): 0.02 OD; OD450 (naked peptide MEDYVNFNFT): 0.86 OD; OD450 (naked peptide SESTSSMEDY): 0.03 OD; OD450 (naked peptide TSSMEDYVNF): 0.03 OD; Kd [13]: 0.00626 µM; koff [13]: 0.00168 s⁻¹; kon [13]: 268000 M⁻¹ s⁻¹ |

— US20260232732A1 (FUNDACI INSTITUT DE RECERCA CONTRA LA LEUC MIA JOSEP …, published 2026)
